Data reported in the supplement of paper PMC10567573.

B1: C6orf223 (parent)
chain: TLARMSRRTRGPVERAAAAAAAAA
B2: TRAF3IP2 (parent)
chain: FMEKRNQWLVSQLSAASPDTGHDS
B3: ZNF511 (parent)
chain: FDALDDYEHHYHTLHGNVCSFCKR
B4: FAM50A (parent)
chain: KALEILRKDFSELRSAGVEQLMYI

Variants of: B1
Test: protein stability index of a GFP-peptide fusion (GPS, HEK-293T) (PSI 1-6); higher = more stable
Conditions: c terminus: a fixed tail appended
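Note: lentivirally expressed fusions sorted by FACS into six bins by GFP to DsRed ratio, PSI derived from sequencing read proportions per bin multiplied by bin number.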

Protein stability index of substitutions, site by site:
A17: Y 4.15 | T 3.76 | R 3.5 | F 1.63
L2: E 4.7
A24: P 2.23 | H 4.49 | F 2.35
A21: W 2.83 | M 1.95 | V 2.18
A22: I 2.23 | F 2.37 | T 3.2 | N 3.38 | W 2.68 | K 1.97 | C 3.33 | L 2.4 | Y 2.66
A19: K 3.43
A23: I 3.49 | Y 3.26 | C 3.99 | W 2.18 | L 3.09 | T 4.46
R4: I 1.94
P12: W 2.27
A18: Q 2.4 | I 3.43 | P 4.09 | W 2.45 | M 1.56 | N 3.25 | L 2.92 | S 2.48 | T 3.57 | Y 2.13
R15: W 2.01
A16: S 3.8

Variants of: B2
Test: as above
Conditions: c terminus: a fixed tail appended

Protein stability index: each site, then its substitutions
T20: Y 2.64 | W 1.02
D23: C 1.73 | R 2.07 | E 2.49 | H 2.47 | N 2.08 | Y 1.75 | Q 2.44 | G 2.11 | P 2.21 | F 2.22 | V 2.71 | A 2.49 | K 1.6 | I 1.65 | L 1.81 | M 2.12 | S 2.69 | T 2.57
G21: T 2.44 | D 2.47 | R 2.62 | V 1.67 | F 1.58 | K 2.44 | L 1.78 | E 3.22 | A 2.72 | H 2.2 | S 2.18 | N 2.56 | C 1.8 | P 2.75 | I 1.8 | Q 2.52 | M 1.77 | Y 2.08 | W 1.63
H22: Y 1.94 | F 2.4 | C 2.8 | A 3.18 | E 3.38 | T 3.27 | P 2.94 | I 1.95 | Q 2.75 | G 2.01 | W 2.05 | N 2.59 | M 2.15 | D 2.87 | K 2.39 | R 1.82 | S 2.33 | L 2.29
S24: T 2.41 | E 3.68 | V 2.29 | D 2.45 | W 2 | M 2.09 | A 2.4 | R 2.48 | I 2.1 | N 2.68 | G 3.22 | K 1.81 | C 2.61 | Y 2.04 | Q 2.85 | P 2.68 | F 2.15 | L 2.22 | H 2.26

Variants of: B3
Test: as above
Conditions: c terminus: a fixed tail appended

Protein stability index of substitutions, site by site:
F1: Q 4.11 | P 4.04 | R 5.08 | G 3.74 | W 3.7 | K 4.28 | A 4.38 | D 4.31 | H 4.46 | Y 3.59 | L 4.31 | V 4.22 | C 4.38 | T 4.28 | I 3.43 | S 4.51 | E 4.64 | N 4.75 | M 4.59
D2: A 3.4 | F 2.48 | R 3.19 | H 2.17 | T 3.18 | S 3.51 | M 3.01 | C 3.17 | G 4.03 | L 3.18 | N 3.06 | K 3.78 | E 4.27 | P 3.11 | Q 2.93 | I 3.62

Variants of: B4
Test: as above
Conditions: c terminus: a fixed tail appended

Protein stability index, by site and new letter:
V18: N 2.35 | I 3.33 | F 4.7 | L 3.85 | E 2.9 | K 2.61 | S 1.28 | Y 2.02 | G 2.52
Q20: Y 2.58 | V 3.63 | P 3.58 | K 4.59 | D 3.81 | M 1.54 | L 2.75
E19: Q 2.95 | F 2.9 | P 4.03 | H 3.15 | I 2.66 | L 2.18 | W 1.95 | G 1.76 | N 2
L13: K 1.53 | I 2 | H 5.15 | A 3.08
M22: F 2.34 | W 2.3 | T 2.22 | P 2.46 | C 2.56 | E 1.27 | D 2.22 | Q 2.37 | I 1.97
L3: R 2.52 | C 3.15 | M 2.02 | N 1.5 | T 1.84 | H 1.57 | P 2.77 | K 2.58 | D 1.73
L6: N 1.74 | S 2.27 | E 2.13 | D 2 | T 1.85 | V 2.36 | Q 2.51 | H 1.55 | K 1.09 | P 2.03 | R 1.89 | G 1.57 | F 2.24 | A 1.41
A2: S 2.96 | R 3.76 | N 1.04 | D 3.3 | F 2.4 | K 1.75 | P 1.95 | V 1.49 | W 2.73 | C 4.79 | L 1.15 | H 1.48
D9: S 3.85 | M 2.56 | C 2.89 | L 1.57 | Q 1.2 | F 2.6 | E 3.81 | A 2.4 | V 2.25
S11: H 2.97 | R 2.76 | D 1.6 | E 2.51 | Y 1.21 | I 3.09
K8: D 2.16 | L 4.84 | W 3.31 | I 2.27 | R 4.36 | F 3.19 | G 3.52 | N 3.03
S15: A 3.13 | F 2.51 | H 4.69 | D 1.14 | R 2.64
F10: V 3.72 | N 2.32 | H 3.24 | A 1.74 | M 2.52
R14: S 2.28 | K 1.51 | E 1.68 | C 4.11 | W 2.68 | L 4.57 | F 3.71 | Y 1.69 | N 1.95
K1: D 1.28 | V 1.18 | Q 1.78 | A 3.07 | T 1.91 | N 1.86 | M 3.33 | P 2.04 | E 1.88 | Y 3.42
R7: H 2.58 | L 3.87 | E 1.54 | F 3.25 | P 2.28 | I 2.18 | A 1.25 | S 2.59 | T 2.91
I24: C 1.98 | N 1.21 | Q 1.73 | S 1.54 | E 1.01 | K 1.94
E12: Q 3.76 | N 3.69 | V 2.75 | S 3.99 | L 2.09 | A 2.97 | R 4 | T 3.5
G17: A 4.16 | H 1.88 | Y 2.95 | D 1.95
I5: P 1.78 | M 3.79 | W 2.75 | T 2.4 | H 3.56 | Y 2.52 | K 1.69 | C 2.39 | D 1.55 | F 1.5
Y23: E 2.41 | K 2.67 | N 1.03 | D 1.45
L21: R 3.83 | D 2.23 | P 3.17 | A 1.78 | Y 3.12 | G 3 | N 2.82
A16: E 3.17 | V 2.07 | I 2.76
E4: K 2.34 | F 3.86 | V 2.21 | D 1.62 | I 2.76 | P 2.74
